Experimental data: patent US20190177414A1

Tests used:
[1] = biological target: CTLA4-mFc fusion protein (human); experiment: competitive ELISA; competitor B7-1-hFc coated 1 ug/ml; CTLA4-mFc 0.3 ug/ml; antibody 3 ug/ml; replicate 2
[2] = biological target: CTLA4-mFc fusion protein (human); experiment: competitive ELISA; competitor B7-1-hFc coated 1 ug/ml; CTLA4-mFc 0.3 ug/ml; antibody dilution 1:243 from 3 ug/ml; replicate 2
[3] = biological target: CTLA4-mFc fusion protein (human); experiment: competitive ELISA; competitor B7-1-hFc coated 1 ug/ml; CTLA4-mFc 0.3 ug/ml; antibody dilution 1:9 from 3 ug/ml; replicate 1
[4] = biological target: CTLA4-mFc fusion protein (human); experiment: competitive ELISA; competitor B7-1-hFc coated 1 ug/ml; CTLA4-mFc 0.3 ug/ml; antibody dilution 1:81 from 3 ug/ml; replicate 2
[5] = biological target: CTLA4-mFc fusion protein (human); experiment: competitive ELISA; competitor B7-1-hFc coated 1 ug/ml; CTLA4-mFc 0.3 ug/ml; antibody dilution 1:9 from 3 ug/ml; replicate 2
[6] = biological target: CTLA4-mFc fusion protein (human); experiment: competitive ELISA; competitor B7-1-hFc coated 1 ug/ml; CTLA4-mFc 0.3 ug/ml; antibody 0 (no antibody); replicate 2
[7] = biological target: CTLA4-mFc fusion protein (human); experiment: competitive ELISA; competitor B7-1-hFc coated 1 ug/ml; CTLA4-mFc 0.3 ug/ml
[8] = biological target: CTLA4-mFc fusion protein (human); experiment: competitive ELISA; competitor B7-1-hFc coated 1 ug/ml; CTLA4-mFc 0.3 ug/ml; antibody dilution 1:27 from 3 ug/ml; replicate 1
[9] = biological target: CTLA4-mFc fusion protein (human); experiment: competitive ELISA; competitor B7-1-hFc coated 1 ug/ml; CTLA4-mFc 0.3 ug/ml; antibody dilution 1:81 from 3 ug/ml; replicate 1
[10] = biological target: CTLA4-mFc fusion protein (human); experiment: competitive ELISA; competitor B7-1-hFc coated 1 ug/ml; CTLA4-mFc 0.3 ug/ml; antibody dilution 1:729 from 3 ug/ml; replicate 2
[11] = biological target: CTLA4-mFc fusion protein (human); experiment: competitive ELISA; competitor B7-1-hFc coated 1 ug/ml; CTLA4-mFc 0.3 ug/ml; antibody dilution 1:27 from 3 ug/ml; replicate 2
[12] = biological target: CTLA4-mFc fusion protein (human); experiment: competitive ELISA; competitor B7-1-hFc coated 1 ug/ml; CTLA4-mFc 0.3 ug/ml; antibody dilution 1:3 from 3 ug/ml; replicate 2
[13] = biological target: CTLA4-mFc fusion protein (human); experiment: competitive ELISA; competitor B7-1-hFc coated 1 ug/ml; CTLA4-mFc 0.3 ug/ml; antibody 0 (no antibody); replicate 1
[14] = biological target: CTLA4-mFc fusion protein (human); experiment: competitive ELISA; competitor B7-1-hFc coated 1 ug/ml; CTLA4-mFc 0.3 ug/ml; antibody 3 ug/ml; replicate 1
[15] = biological target: CTLA4-mFc fusion protein (human); experiment: competitive ELISA; competitor B7-1-hFc coated 1 ug/ml; CTLA4-mFc 0.3 ug/ml; antibody dilution 1:243 from 3 ug/ml; replicate 1
[16] = biological target: CTLA4-mFc fusion protein (human); experiment: competitive ELISA; competitor B7-1-hFc coated 1 ug/ml; CTLA4-mFc 0.3 ug/ml; antibody dilution 1:729 from 3 ug/ml; replicate 1
[17] = biological target: CTLA4-mFc fusion protein (human); experiment: competitive ELISA; competitor B7-1-hFc coated 1 ug/ml; CTLA4-mFc 0.3 ug/ml; antibody dilution 1:3 from 3 ug/ml; replicate 1

Chain of CTLA4-mFc fusion protein (human) (chain, as listed by the source limits assumed): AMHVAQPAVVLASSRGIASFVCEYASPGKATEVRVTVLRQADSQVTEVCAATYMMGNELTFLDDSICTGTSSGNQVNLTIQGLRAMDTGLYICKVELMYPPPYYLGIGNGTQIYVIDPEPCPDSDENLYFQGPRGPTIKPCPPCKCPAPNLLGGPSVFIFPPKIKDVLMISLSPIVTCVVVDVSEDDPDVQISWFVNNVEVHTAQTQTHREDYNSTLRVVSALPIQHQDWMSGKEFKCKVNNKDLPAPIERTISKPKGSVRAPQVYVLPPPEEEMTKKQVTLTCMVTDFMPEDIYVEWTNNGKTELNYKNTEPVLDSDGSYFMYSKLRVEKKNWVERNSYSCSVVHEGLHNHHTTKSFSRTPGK

control antibody 10D1 (anti-CTLA4 antibody)
absorbance at 450 nm [1]: 0.14
absorbance at 450 nm [2]: 0.554
absorbance at 450 nm [3]: 0.351
absorbance at 450 nm [4]: 0.663
absorbance at 450 nm [5]: 0.312
absorbance at 450 nm [6]: 0.732
EC50 [7]: 1.12 nM
absorbance at 450 nm [8]: 0.442
absorbance at 450 nm [9]: 0.572
absorbance at 450 nm [10]: 0.692
absorbance at 450 nm [11]: 0.365
absorbance at 450 nm [12]: 0.133
absorbance at 450 nm [13]: 0.888
absorbance at 450 nm [14]: 0.147
absorbance at 450 nm [15]: 0.556
absorbance at 450 nm [16]: 0.726
absorbance at 450 nm [17]: 0.144
